The nanobody polyreactivity screen of Harvey et al. (2022)

Experiment: yeast display, Sf9 membrane polyspecificity reagent, FACS + sequencing; frameworks hold sequencing errors
How it was run: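 Genes from sorted yeast were amplified by colony PCR, read by MiSeq 2 × 250 sequencing and filtered on CDR length. These cells carried a synthetic nanobody library in Saccharomyces cerevisiae BJ5465 and were sorted by FACS into low and high (top ~1%) gates on anti-HA and streptavidin fluorescence. Polyreactivity is labelled according to the gate of origin.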

Sequence | polyreactivity (PSR sort gate)
QVQLQESGGGQVQAGGSLRLSCAASGTISDSGLMGWYRQAPGKERELVAGISSGGITNYADSVKGRFTISRDNAKNTVYLQMNILKPEDTAVYWGQGTQVTVSI | low polyreactivity
QVQLESGGGLVQAGGSLRISCAASGSTFVTYDMGWDRQAPGKEREIVAAIDWSGDSTYADSVKGRFTISRDNAKNTVYLQMNSLIPEDTAVYSCAADYDNYGDVYPYYTAGYGYWGQGTQVTVSS | low polyreactivity
QVQLVESGGGLVQAGGSLRLSFADSGYNFPLYAMGWYIQAPGKERELVADINIGGASTYYADSVKGRFTISRDNAKNTFYLQMNSLKPEDTAVYSCAARDCYQRRQRRYDYWGQGTQVTVSS | low polyreactivity
QVQLVDSGGGLVQAGGSLRLSCAASGSIFVTYAMGWSRQAPAKERELVAAITDRGGSTYADSVKGRFTISRDNAKNTVYLQMNSLKPEDTAVYYCAADPDLGDAYDYWGQGTQVTVSS | low polyreactivity
QVQRVESGGGIVQAGGSLRLTCAASGITFVSYTIGWSRQAPGKEREFVAAITWNVASTYYADSVKGRFTISRDNAKNTVYLQMNSLKPEDTAVYYCAAYSRFTSDYWGQGTQVTVSS | high polyreactivity
QVQLVESGGGLVQAGGSLRLICAASRFTFPGYTLGWYRQEPGKERELVATINRSGSTTYADSVKGRFTISRDNAKNTVYLHMYRLKPQDTADYYCAAVVWGSGNKMDYWGQGTQVTGSS | high polyreactivity
QVQLVESSGGLVQAGGSLRLSCAASGSIFLYNAMGWYRKAPGTEREMVAAISKSGGSTYYADSVKGRFTISRDNAKYTVYLQMNSLKPEDTAVYYCAAGYGRRIRYGCEYDYWGQGTQVTVSS | low polyreactivity
QVQLVESGGGLVQAGGSLRLSCAASGNTFVQNTMGWYRPATGKETELVAAISTRGGSTYYADSLKGRFTISRDNAKNTVYLQMNSLKPVDTAVYYCAARSKVRRSYDYWGQGTQVTVSS | high polyreactivity
QVQLVESGGGLVQAGGSLRLSCAASGYTFGTYAMGWYRQAPGKERELVAAITTNVGSTYYADSVKGRFTISRDNAKNTVYLQMNSLKPEDTAVYYCAADVGWRFGDITYWAYDYWGQGTQVTVSS | low polyreactivity
QVQLVESGGGLVQAGGSLRLSCAASGNTFYGYAMGWYRQAPGKERELVASITLSGDSTYYADSVKGRFTISRDNAKNTVYLQMNSLKPEDTAVYSCAGVYTYPLGYYHYTYDYWGQGTQVTVSS | low polyreactivity
QVQLEESGGGLVHAGGSLRLTCDAYGYIFALNPIVWNRQAPGNESEVVAAINDSGDSTYYADSLKGRFTISRDNSKNTVYLQMNSLNPEDSAVYYCAADTRYRYGAFPYYEYDNWGQGTQVTVSS | low polyreactivity
QVQLVESGGGLVQAGGSLRLSCGASGFISTYYAMGWYRQAPGKERELVAAISWNGGSTYYADSVKGRFTISRDNAKNTVYLQMNSLKPEDTAVYYCAAYLGKWRHFYSSDYDYWGQGTQVTVSS | low polyreactivity
QVQLVESGGGLVQAGGSLRLSCAASGSIFRINAMGWYRQAPGKEREFVAAISSRGGSTYYADSVKGRFTISRDNAKNTVYLQMKSLKPEDTAVYYCAKYASVGYGRYPYDYWGQGTQVTVSS | high polyreactivity
QVQLVESGGGLVQAGGSLRLSCAASGSIFVHNAMGWYRQAPGKERELVAAITWSGGSTYYADSVKGRFTISRDNAKNTVYLQMNSLKPEDTAVYYCNATYSVRYYLEFLNEPEMDYWGQGTQVTVSS | low polyreactivity
QVQLVESGGGLVQAGGSLRLSCAASGRTFRYYAMGWYRQAPGKERELVASITGSGGSTTYADSVKGRFTISRDNAKNTVYLQMNSLKPEDTAVYYCAVRYPYYSYRAKLGYWGQGTQVTVSS | high polyreactivity
QVQLVESGGGLVQAGGSLRLSCAASGFTFYYYAMGWYRQAPGKERELVASISWRGGSTYYADSVKGRFTISRDNAKITVYLQMNSLKPEDTAVYYCAAQKRGSPGYRRDYWGQGTQVTVSS | high polyreactivity
QVHLQESGGGLEQAGGSPRLSCAASDNIFPDSVMCWYRQAPGKERELVATIGFGATTNYADSVKGRFTISRDNAKKTVFLQMNSLKPEDTAVYYCAADTLNYEYFCYWGQGTQVTVRS | low polyreactivity
QVQLVESGGGLVQAGGSLRLSCAASGSTFDSYAMGWSRQAPGKERELVAAISYSGGSTYYADSVKGRFTISRDNAKNTVYLQMNRLKPEDTAVYYCAASSYNHKRYPSPYDYWGQGTQVTVSS | high polyreactivity
QVQLVESGGGLVQAGGSLRLSCAASGLTFASNAMGWYRQAPGKERELVAAISWSDGSTYYADSVKGRFTISRDNAKNTVYLQMNSLKPEDTAVYYCAAEPPGFRTSRVGYWGQGTQVTVSS | low polyreactivity
QVQLVESGGGLVQAGGSLRLSCAATGLILGRNAMGWYRQAPGKERELVAAITGSGSTNYADSVKGRFTISRDNAKNTVYLQMNSLKPEDTAVYYCAADVRLDPTGLDYLDYDYWGQGTQVTVSS | low polyreactivity
QVQLVESGGGLVQAGGSLRLSCAASGRTFALYAMGWYRQAPGKERELVAAITFSGGSTSYADSVKGRFTISRDNAKYTVYLQMNSLKPEDTAVYYCAAYWYSLYYLYPYDYWGQGTQVTVSS | low polyreactivity
QVQLVESGGGLVQAGGSLRLSCAASGSTFPYNAMGWYRQAPGKEREFVAAITSDDTTNYADSVKGRFTISRDNAKKTVYLQMNSLKPEDTAVYYCAAEYRYPYLRGAGDYWGQGTQVTVSS | low polyreactivity

Sequence | polyreactivity (PSR sort gate)
NVQLVESGGGLVQAGGSLRLSCAASGSTFDYYDMGWYRQAPWKERELVATITSGGSTNYADSVKGRFTITRDNAKNTVYLLMHSLKPEDTAVYYCDARIRSVVPFDMDYWGQGTQVTVSW | low polyreactivity
QVQLVESGGGLVQAGGSLRLSCAASGYTFYGYAMGWYRQAPGKERELVAAISWSGTNTNYADSVKGRFTISRDNAKNTVYLQMNSLKPEDTAVYYCAAGYYYRGFHTEDYWGQGTQVTVSS | high polyreactivity
QVQLVESGGGLVQAGGSLRLSCAASGFIFNSYGMGWYRQAPGKERELVAAITKSGGSTYYADSVKGRFTISRDNAKNTVYLQMNSLKPEDTAVYYCAARAYRYSVYRGDYWGQGTQVTVSS | high polyreactivity
QVQLVESGGGLVQAGGSLRLSCAASGSIFGGYDMGWYRQAPGTERELVAAITRDGDTNYADSVKGRFTISRDNAKNTVYLQMNSLKPEDTAVYYCAADRWLYSWFFNYDQGDYWGQGTQVTVSS | low polyreactivity
QVQLVESGGGLVQAGGSLRLSCAASGIIFAQYTMGWYRQAPGKERELVAAINRNGGSTYYADSVKGRFTISRDNAKNTVYLQMNSLKPEDTAVYYCNADALGFRYDYWGQGTQVTLSS | low polyreactivity
QVQLVESGGGLVQAGGSLRLSCAASGSTFSRYAMGWYRQAPGKERELVAAISWGGNTYYADSVKGRFTISRDNAKNTVYFQMNSLKPEDTALYYCATEVRYQGWRDYWGQVTQVTVSS | high polyreactivity
QVQLVESGGGLVQAGGSLRLSCAASGRIFAHYEMGWYRQAPGKERELVAAISSGGSTYYADSVKGRFTISRDNAKNTVYLQMNSLKPEDTAVYYCNKRPVRRKYDYWGQGTQVTVSS | low polyreactivity
QVQLVESVGGLVQAGGSLRLSCAASGYIFKYYAMGWYRQAPGKERELVAAISRSGGSTYYADSVKGRFTISRDNAKNTVYLQMNSLKPEDTAVYYCNAAAYVWKSKQRLYVITYDYWGQGTQVTVSW | high polyreactivity
QVQLVESGGGLVQAGGSLRLSCAASGRIFHTYAMGWYIQAPGKERELVAAISRSGGSTYYADSVKGRFTISRDNAKNTVYLQMNSLKPEDTAVYYCAADIRGPYGNRYKFYYWGQGTQVTVSS | high polyreactivity
QVQLGESVGGLVQAGGSLRLSCAASGRIFEPYAMGWYRQAPGKESELVAAINSGGSTNYADSVKGRFTISRDNAKNTVYLQMNSLKPEDTAVYYCNKGQNIRQSPGDYWGLGTQVTVSS | low polyreactivity
QVQLVESGGGIVQAGGSLRLSCAASGRTFSIYAMGWYRQAPGKERELVASITNSDGSTYYADSVKGRFTISRDNAKNTVYLQMNSLKPEDTAVYYCNDDSGISRVKYGYWGQATQVTVSS | low polyreactivity
QVQLVESGGGLVQAGGSLRLSCAASGRSFRYNTMGWYRQAPGKERELVAAITKGAATTYYADSVKGRFTISRDNAKNTVYLKMTSLKPEDTAVYYCNAVYSRIVTQKYWGQGTQVTVSS | high polyreactivity
QVQLVESGGGLVQAGGSLRLSCAASGRIFWYYGMGWYRQAPGKERELVASIRSGGSTNYADSVKGRFTISRDNAKNSVYLQMNSLKPEDTAVYYCAARPDYRYHYWGQGTQVTVSS | high polyreactivity
QVQLVESGGGLVQAGGSLRLSCAASGRIIIEYAMGWYRQAPGKERELVASITSSGGRTTFADSVKGRFTISRDNAKNTVYLQMNSLKPEDTSVYYCAAKYYWYYSYSGIPLFDYWGQGTQVTVSS | low polyreactivity
QVQLVESGGGLVQAGGSLRLSCGASGSTFVAYDMGWYRQGPGKERELVAAISWSDATTYYADSVKGRFTISRDNAKNTVYLLMNSLNPEDTAVYYCAATRDTNNMDYWGQGTQVTVSS | low polyreactivity
QVQLVESGGGLVQAGGSLRLSCAASGSTFPYYTMGWYRQAPGKERELVAAIRYSGSSTYYADSVKGRFTISLDNAKNSVYLQMNSLKPEDTAVYSCAKTLWRRRGDRRYRVIEMDHWGQGTQVTVSS | low polyreactivity
QVQLVESGGGLVQAGGSLRLSCAASGFIFRRYTMGWYRQAPGKERELVAAISSRGGSTYYADSVKGRFTISRDNAKNTVYLQMNSLKPEDTAVYYCNAGLGVRRRYDYWGQGTQVTVSS | high polyreactivity
QVQLVESCGGLVQAGGSLRLSCAASGRIFRWYAMGWYRQAPGKERELVARITSGGSTNYADSVKGRFTISRDNAKNTVYLQMNSLKPEDTAVYYCARDWGKSEYEYWGQGTQVTVSS | high polyreactivity
QVQLVESGGGLVQAGGSLRLSCAASGSIFKYYTMGGYRQAPGKERELVAAISGSGSRTYYADSVKGRFTISRDNAKNTVYLQMNSLKPEDTAVYYCAAEVKDSFVNAKSYYWGQGTQVTVSS | high polyreactivity
PVQLVESGGGLVQAGGSLRLSCAASGRTFGYNAMGWYRQAPGKERELVASISYRGGSTYYADSVKGRFTISRDNAKNTVYLQMNSLKPEDTAVYYCNKYYVWREYYWGQGTQVNVSS | high polyreactivity
QVQLVESGGGLVQAGGSLRLSCAASGRIFRYYAMGWYRQAPGKERELVAAITWSGGSTYYADSVKGRFTISRDNAKNTVYLQMNSLKPEDTAVYYCNAKSYQPFHGDYWGQGTQVTVSS | low polyreactivity
